Two molecules from article PMC7721647, “The Human RNA Helicase DDX21 Presents a Dimerization Interface Necessary for Helicase Activity” (iScience, 2020) can be followed below.

What all share (experiment): fluorescence polarization; FP: 50 mM Tris pH 7.5, 50 mM KCl, 5 mM MgCl2, no ATP; Hill-slope fit; temperature not given in the material
The target of one series is T1, DDX21ΔN (human, UniProt Q9NR30 186-783).
T1 sequence: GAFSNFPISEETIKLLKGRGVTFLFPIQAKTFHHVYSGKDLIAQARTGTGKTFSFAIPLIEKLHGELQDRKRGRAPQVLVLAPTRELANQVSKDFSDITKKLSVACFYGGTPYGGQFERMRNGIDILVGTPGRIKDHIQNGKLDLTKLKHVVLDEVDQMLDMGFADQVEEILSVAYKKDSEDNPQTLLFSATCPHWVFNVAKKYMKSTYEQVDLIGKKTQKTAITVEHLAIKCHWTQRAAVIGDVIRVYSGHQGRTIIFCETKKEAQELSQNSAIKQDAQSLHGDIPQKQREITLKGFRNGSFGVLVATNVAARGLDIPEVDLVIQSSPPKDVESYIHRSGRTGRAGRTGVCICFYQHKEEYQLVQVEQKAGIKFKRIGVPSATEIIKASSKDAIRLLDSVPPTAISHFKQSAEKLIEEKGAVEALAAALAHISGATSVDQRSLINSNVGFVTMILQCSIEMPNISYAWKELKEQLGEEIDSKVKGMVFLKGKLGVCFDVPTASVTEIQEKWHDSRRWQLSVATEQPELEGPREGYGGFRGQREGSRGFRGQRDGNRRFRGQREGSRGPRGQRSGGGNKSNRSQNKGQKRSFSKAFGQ
The following applies: protein: recombinant, chain copies: 2.

In the next series the target is T2, DDX21Core (human, UniProt Q9NR30 186-564).
T2 sequence: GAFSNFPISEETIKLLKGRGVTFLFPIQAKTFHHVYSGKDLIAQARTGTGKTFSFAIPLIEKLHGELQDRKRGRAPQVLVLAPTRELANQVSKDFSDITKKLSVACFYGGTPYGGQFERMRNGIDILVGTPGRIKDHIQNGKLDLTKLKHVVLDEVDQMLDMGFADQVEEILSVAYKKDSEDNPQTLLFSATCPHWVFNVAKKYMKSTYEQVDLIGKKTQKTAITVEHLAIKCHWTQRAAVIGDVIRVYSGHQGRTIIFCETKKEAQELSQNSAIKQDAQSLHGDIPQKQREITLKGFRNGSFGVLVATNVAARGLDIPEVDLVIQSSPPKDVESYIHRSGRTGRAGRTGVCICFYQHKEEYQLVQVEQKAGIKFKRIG
The note with it: protein: recombinant.

The next series deals with T3, DDX21Core-DD (human, UniProt Q9NR30 186-620).
T3 sequence: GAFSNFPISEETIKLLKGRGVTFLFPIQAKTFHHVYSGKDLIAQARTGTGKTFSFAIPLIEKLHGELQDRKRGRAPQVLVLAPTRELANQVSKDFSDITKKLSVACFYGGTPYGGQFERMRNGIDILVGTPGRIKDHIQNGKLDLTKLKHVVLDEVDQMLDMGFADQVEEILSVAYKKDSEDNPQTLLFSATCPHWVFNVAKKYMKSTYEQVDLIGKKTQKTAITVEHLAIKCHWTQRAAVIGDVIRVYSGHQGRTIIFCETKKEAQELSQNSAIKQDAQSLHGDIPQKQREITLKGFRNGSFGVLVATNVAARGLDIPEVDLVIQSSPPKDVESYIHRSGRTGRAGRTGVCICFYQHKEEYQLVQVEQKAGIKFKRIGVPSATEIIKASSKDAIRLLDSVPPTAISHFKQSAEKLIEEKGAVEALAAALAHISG
The note with it: protein: recombinant, tags: C-terminal His6, uncleavable, chain copies: 2.

For the next series, the target named is T4, DDX21ΔNC (human, UniProt Q9NR30 186-710).
T4 sequence: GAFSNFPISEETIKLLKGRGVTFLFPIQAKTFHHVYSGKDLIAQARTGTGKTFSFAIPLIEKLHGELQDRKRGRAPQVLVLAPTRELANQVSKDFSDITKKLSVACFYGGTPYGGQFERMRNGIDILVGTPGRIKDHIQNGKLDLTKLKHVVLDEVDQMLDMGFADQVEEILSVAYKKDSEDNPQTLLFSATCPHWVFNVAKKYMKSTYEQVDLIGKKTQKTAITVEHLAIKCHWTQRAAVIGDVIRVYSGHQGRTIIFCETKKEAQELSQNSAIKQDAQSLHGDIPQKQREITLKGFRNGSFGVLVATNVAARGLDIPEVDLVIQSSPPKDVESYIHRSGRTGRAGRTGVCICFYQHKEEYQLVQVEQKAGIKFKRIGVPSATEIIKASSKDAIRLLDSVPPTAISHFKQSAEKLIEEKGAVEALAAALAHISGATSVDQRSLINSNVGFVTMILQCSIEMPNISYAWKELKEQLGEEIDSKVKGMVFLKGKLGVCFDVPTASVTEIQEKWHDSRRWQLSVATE
The note with it: protein: recombinant, chain copies: 2.

Where [1] appears, read: label: 5'-FAM on 15-mer, 3' overhang 15 nt.

As for GUUUCGGAUCGACGC (ssRNA) [15-mer ssRNA], the Kd amounted to 40.3 ± 2.6 nM in the series with DDX21ΔN (label: 5'-FAM, single strand); 1520 ± 112 nM with DDX21Core (label: 5'-FAM, single strand); 330 ± 19.1 nM with DDX21Core-DD (label: 5'-FAM, single strand); 688 ± 52.7 nM with DDX21ΔNC (label: 5'-FAM, single strand).

B1: dsRNA 15/30mer 3' overhang (dsRNA)
RNA 1: GUUUCGGAUCGACGC
RNA 2: GCGUCGAUCCGAAACUAUACUUAAUUUUAA
Turning to B1, the Kd with DDX21ΔN (setting [1]) came to 15.5 ± 0.8 nM; with DDX21Core (setting [1]) it was 353 ± 27.9 nM; with DDX21Core-DD (setting [1]) it was 143 ± 6.1 nM; with DDX21ΔNC (setting [1]), 217 ± 10.4 nM.
